{"source": "paper PMC2557009", "about": "“YB-1 promotes microtubule assembly in vitro through interaction with tubulin and microtubules” (BMC Biochemistry, 2008)", "proteins": {"B1": {"name": "YB-1 (natural protein)", "chain": "not shown", "notes": "source: E. coli BL21(DE3), pET 3-1-YB-1 construct, purified (heparin-Sepharose, Sephacryl S-200)"}}, "biological_target": "the molecule itself", "experiment": "cross-linking; zero length cross-linker EDC (5 mM) / sulfo-NHS (12 mM); 1 μM tubulin and 0.3, 0.5, 0.8 or 1.2 μM YB-1, or each alone; 50 mM MES-KOH pH 6.8, 1 mM MgCl2, 1 mM EGTA, 0.5 mM GTP, 1 h at 30°C; SDS-PAGE, Coomassie and Western blot"}
{"protein": "B1", "values": [{"measurement": "stoichiometry N", "value": 2}]}
